In the domain aggregation screens of Martell et al. (2025):

Assay: soluble fraction after stress (log2 fold change); higher = more stays soluble; pooled small domains, quantitative proteomics
Details: stress: pH 4
Method in brief: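 After pH 4 stress, pooled custom libraries of small protein domains were quantified with high-throughput quantitative proteomics. Aggregation propensity is taken from the fold change in each domain's soluble amount following the acid stress. The scale is log2, where higher values mean more stayed soluble.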

Row | Sequence | soluble fraction (log2)
1 | HMNVSDIENKLNEMLSPLEKKVMVLYLEGKSYVEIGELLGRHTKSVDNALQRVKRKLEIYLKNRK | 0.295
2 | HMNVTIGESIKNVINHYGTPIYSYNPNNQEKYYEFHTNKGVLVVTAIGKKNTGYVTRVSMTY | -0.175
3 | HMNVVDTGTDANYRVKISAVNLNMRLGPSTSYKSKGYITPGNYTIIKTSGDWGKVKETGYWVALKYTSKIN | 0.175
4 | HMNVVINNELVSLMVEAMKDGVSSKSIQEEFEGYKISGKTITKKVLTAHVNKALEVFADMQE | -0.477
5 | HMNYDPEEKITQIRTMLEIHSRIEFNEIITPATRRGEIIIIFLALLHMIKRGYIVVRQHRLFGDITIFARD | 0.22
6 | HMNYKDQISRYFQQAFHIYPKYQTMKNEEGNFTSKIFKDDKMIIEGVGKSKKKAEQDVSRKALIHFNVL | 0.398
7 | HMNYKNAIGQVGSVYVPIPPNREGLGQIEVKVQSRVSTVRAVSDHSERLENRVAVRVIELVDDRTLLVEKL | -1.13
8 | HMNYTSEDIKLASELFFHLLNNRILPANDVLASQYYDNNEIREILENMAEEGGLRIFGTRENLHLVSNGE | -1.21
9 | HMNYYDLLGIPKSATKQQIRKAYRTKAKEFHPDVNGPFNSHMHFLLLKQAYETLMDANMRHVYDMALIS | 0.215
10 | HMPADHYEVLGIARDADAAEVKRAYRRLARESHPDANHGDSGAEVRFKAVSAAYEVLSDPERRARYDRFGH | -0.257
11 | HMPANVELLRTFTNKTGTKIKARIVAVSDNKVKLIRDDSKKFIVPIDSLSEEDQKYLKDWIANEVGEQ | 0.133
12 | HMPARTANEEAIRKYLLNHDSITRKETQALLKTGQSAAGRILKEMVENGWLARIGNGRSTGYELR | 0.244
13 | HMPATIEGIRLYLSSGLIKGVGEEMASRIVKAFGTDTIRVLDEEPERLLKVRGVGKKSLDRIRTSWAEH | -0.585
14 | HMPATPDATVQAVQQRLNELGYDVGSADGLMGRGTRSAIIAFQQDRGLAATGVADQALLLQLQP | -0.0545
15 | HMPAWKINQELQATVIATKANQTRLRIEGQTFETQTAIALKPGQSLLIKVVSLEPQISFALI | 0.199
16 | HMPDFLAELAARMERDAVTEAQIRQVVAQKGHYPEEVSPAQYHPDFFRQWLFPHWEKIVDVIRSSPEYTP | -0.539
17 | HMPDGTATATASVNVRSGASTLSPVLGVLRVGESIGVTGQANGGWVPVNYNGRAGYVYAAYLSFD | -0.0669
18 | HMPDKIDSAAQGILDKLIRNDGFMAVTDKSPPEAIYKLFGVSKKVFKQAIGSLYKNRLITIEDAGLRIIPQ | -0.214
19 | HMPDLKIGKDHRLAEYIETKIAEDGYSPGAVLGEIKAKGLEFETEISKPTLYSYIDKGIFLTITNKELPV | 0.0942
20 | HMPDLQKAIDDLLQVVDKRLNTSFESILNEVNSEKEAVAFFLALLEAVRWGFVKASQSDEGIKIEK | -0.387
21 | HMPDLSAEERNIVEALQKSNDLQVNLIAVKTGMDMGTLSATLFGLEMKGLVKLMAGGTYHLI | 0.191
22 | HMPDLSEDEEKIVSLLRDNNDLNVNIIVMRTQLPSATVTSSLFSLELKGVVRMYAGGMYHLM | 0.0385
23 | HMPDLSYVDEVLNRYKGHKGTLITVLQQVQAHKGYLEKEALERVARSMGVPTARIYGVVTFYAQFR | 0.099
24 | HMPDPVHAAYLRLAVLLTEQAIGPQVTEQQIRDRFALTRRQTSDLMGRLIREGIAEKRAGYGWNINTELTA | -0.748
25 | HMPDVAIMNVSVEPEKKVVRLQVKAISLEALLDFSTRLEAIPARVELQNHTPSKELSQKWAVNATLIVIY | -0.0366

Row | Sequence | soluble fraction (log2)
26 | HMPDYYAILEVERTADAKTIKAAYRKLALAYHPDRNPGDQAAEERFKQINEAYAVLSDPEKRARYDRYGSV | 0.139
27 | HMPEFKDMLKFFRMREHLSQSELAEKLGISASTVSMYEVGRRQPDFETEEKIADFFNTDLNTLRG | -0.169
28 | HMPEGTYLEKLAIENNNLQLIGLSREASQLVQLLQDAPQWRKVNLTGVLQADGAASGRDRFTMTAELQ | 0.187
29 | HMPEKNQITHLIRLIDDRDEFVRKRVREQLIKLGEDAIPFLEMAAKTENLEIQRIASEIIQAIIPRQ | -0.282
30 | HMPELPPHELLRALMVEHDIKQSELPEVGPQPVVSDVLAGKRALNLRQVAALAARFHVPMEVFT | -0.015
31 | HMPELSITDADIIVAGGRGMGSAENFGLIRELAGLLGAAVGASRVVVDAEWVDQKHLIGQTGK | -0.507
32 | HMPELTASDEADLKALVGGDQGFEQMANWARSNLGEEEINRFDAVVDSNNKDAIHMAIQAMQARMNA | -0.394
33 | HMPELTERELEVLLLTARGLPSSEAARLLFITRRTVAAHLTSIYGKLGARNKTEAVLAALKRGIIMLDQIG | -1.46
34 | HMPESYFEMLQKLLETYALPQEGTIYFSAADLARMPQKFEDVIEQTAQKKGGHLVVSKEPKDMDGGFVLV | -1.62
35 | HMPEVAHTIDMEAVNKHWDELPEREQRILVMRFYGNLTQTEIGERLGISQMHVSRLLARALSHLKSRLLD | -0.046
36 | HMPEVYPFEVAEDDAGKRLDVFLSEEIEEFTRSFIQKLIAGGLASVNRAPARASYRVKPRDLVELQVPE | -0.158
37 | HMPFNREYWIEQLLKEVGLMGTPYAELDKHEVELDSPTGRASGFKVNAKTYVDQQLLFIENEYNNQPE | -0.899
38 | HMPFREGDEVFVELVEPHMYNEDDAVAKLDGYVVAVRGAAGLVGQKVLVRIERVGRSSAEATLVA | -0.451
39 | HMPGEIKKIPINSISYQDLKQHPYFDAYLAKQVIKYRETKGRIENIEQFREATRAYQSLIEKVTPYLDFE | -0.268
40 | HMPGGLSAEDVEKMVEKVLTVNGDVVEEIRSGRDPKGKKIKFLAGLVMRDARGQADAAAVSGILERRLKEG | 0.371
41 | HMPGLITLEAAKTTALNHAKLTADQVTFVKQKLDRDDGRQVYEIEFYTSDYKEYDYEIDAVSGLILEVDYD | -0.33
42 | HMPGLPLWAFSTRGSAIHTGASFRDGDGLLFGPESRGLPDWLLEEVGQDRVLRLPMRPGSRSLNLSNAV | -1.7
43 | HMPGPAEMPGWITARAKKLGGQITPEAARALAAEMGSDTEQASREIEKLLTYVDYRRPVEEEDVALLTA | 0.00808
44 | HMPGRKTTFEERLSIIEDLIKHDVNYSWAVDKYHVSYQQVYGWYQKYRKSGNDPQSLRDRRGK | ≥ 0.43
45 | HMPGRPSRISDAVKDQIDHDLRKNPRDLGYSQNLWDGKLLSHHLKERYQITLGIRQAQRLFHQLGFRQR | -0.0409
46 | HMPGVLEVDTGGVAAVAYVDGVEVGRVPGELQIAAGTKTLMLKADRYLDYVQSLEIDGLGKRQLLVATLQS | -0.831
47 | HMPGVTTQLHRLNGTEETYIIKRGDGVLEIDGEKSELQLGDAIIIPAGASQKISNIGDEDLE | -0.229
48 | HMPHFFISTSDVNQDIITVSDKENFHHIARVLRSKVGETLLLVDENRTQYKVVIQNIDSKSITTKVVETLK | -0.697
49 | HMPHFGVVLQMDDWKTLRDRLEARDDIDWVMKPNLRFEGQPGEQATLFIRDPSGNALEFKGFADLSQVF | -1.64
50 | HMPHSTTDFSVSPDERQIVYSTNLQGRYDLWALDHNQGYPYPLTKKGQMSFFIKHLPGSQMILTGFD | 0.0618

Row | Sequence | soluble fraction (log2)
51 | HMPIDQAKRKKEIIQNFGIRKIYKFSEIFDLKFGRDNIIVTFLIILDMIKEGVVEINENKEEIEFEYK | -0.04
52 | HMPIKYTHKGYTINVSRSKMNGTTFVKVVDPKGQVIQQSQDNRIQDVNQLVTTMKQYIDTLKPS | -0.0336
53 | HMPILRDEVYLSIKEAILTGELAPGERISIGRLLPQIGFSPTPIREALLKLEQEGFVSRLQRGGFIVSR | -0.471
54 | HMPIQLLSEKYMDEHWDELDKDEVSLYQNMSIRFLLKHEDDINWKLYSTNPFISIDTIDFFKDKISWVNI | -1.45
55 | HMPKAKASARNDTRTRLLTIGTEVLSQKGFASTGVEEILSVAGVPKGAFYYYFESKAAFGLAVIENYE | 0.22
56 | HMPKAMAIMSEIAGTVHIDDTKKSRHVEVTGVDDNGAPVTKSYLIPFGHRLKVMEGDVLVKGALLT | -0.0288
57 | HMPKHHIESVIPENFAGERLDKVLAVLWGTFSRAQLTRWIRDGSLLLDGHKVKPNTKVDGSEKIVLQAEVA | 0.0479
58 | HMPKNEHETKAIGNQTGGRVFLFLNTDNINRDYNMYISKQVKFVREISQEYYGKVAVFEDLYGNLWDLIE | -0.222
59 | HMPKNRTDYVQDVLKSLGRPAHYKEITQIINAMLPKEAQYSAKSIQVVLGSSPLFIRVGTGTYALVE | -0.79
60 | HMPKNVEVPNVVGLSLPMAKLRLTQLGLHIVVRDSVWSETGQPNTILDQDPQPGKKIKPESTVYVKVN | ≥ 0.43
61 | HMPKRYAGPDIIAIYGSDVFFRVGSGDGLMVIPVGRSMDNIEVVSVDAPRSVELMWKDGGPFTVPV | -0.218
62 | HMPKSKTPDDAAEEFRTAFSALDMDGKVTVKDMAEYMGVIDKTVYARLKKMGDEFTLDKGVITKKT | -0.084
63 | HMPKTATIVIDLNYADAKEIVENLQTILAGETKDISVAPHPSANQIIASGDRWEVENISTIIKQLDR | -1.02
64 | HMPKTLTEAAYEDIKQWILEGEITPGSKISLEDTASRLEVSMTPIREALTKLQQEGLVEYIPRAGWRASK | -0.294
65 | HMPLAQRFGLTVAQARVLDLLAEGRSNRQIGELLGLTEGTVKIHVSAIMKAMGVSNRAEAALMANRKR | -0.29
66 | HMPLDKDTTLDEIYRRFNMEHPADYKGHSLSMGDIVVFRQDGKQTAYYVDEGADYRQVPEFFVK | -0.173
67 | HMPLDPFVVDALRDEIINTIKQHEPRVDLQKVQVQPIYTQNRVNISVQYKIVGLPIVEDITFVLQRP | 0.135
68 | HMPLEKGVVILDVTPSSAKVAVDGTSVETTYPLRLSAGLHQLSAEADGYDSITEYFKVETEKTTVTLDLSK | 0.234
69 | HMPLEQAELRLDLKQAILQMDRQTQELLLLRYVDGLSPGEAGKVLELSRFAVYRREKEALRKLRDYFSH | -0.834
70 | HMPLLSEWDAALEELWAKLGDVPMDPETERMDAPFLGFPAGTPREDIWHWFDERHSKGVAHLLYG | -1.78
71 | HMPLQYRLTVQPTPTNARVRLVNSAFTYRPGVALPPGSYIVEVSSSGYGAKRQAVQIADGDVTVPVELEKI | 0.138
72 | HMPLYKYYTSYQIEPGDTLTSIAQKYTINSDVSVQDYIDEVKKNNNLVSDKINSGSYLVVSYYSNEY | -1.24
73 | HMPNIQLARNLKYLRLAYGLTQDDLGAFLNISRQAYSNYENLKRSPDLDSLIRLASLYHLSLDDLVSR | -1.24
74 | HMPNTLAGIERYLGSGMVKGIGPVYASRLVSAFGTAVFDVIEQTPERLREIDGIGEKRTRKITSGWADQ | -0.242
75 | HMPNYIDAISALLTLKGVGDRKHASTMANILNLQYNSAKQKLDGKRGITLDEVKKVFQYFNEPF | -0.76
